# Starred links: 1 amine or outer side, 2 acyl side, 3 side chain; linkers in the order of their positions; H or OH if unused. Positions of bridges follow the written chain, without caps; N, C: chain ends. Non-standard residues stand in square brackets, D forms with d. Primed or numbered codes have the meaning given here. B5(18) = 2,2-bis(4-pentenyl)glycine (2-amino-2-(pent-4-en-1-yl)hept-6-enoic acid), stitching residue, C=CCCCC(CCCC=C)(N[*:1])C(=O)[*:2]; B5(4) = 2,2-bis(4-pentenyl)glycine = 2-amino-2-(pent-4-en-1-yl)hept-6-enoic acid (stitching residue), C=CCCCC(CCCC=C)(N[*:1])C(=O)[*:2]; B5(3) = 2,2-bis(4-pentenyl)glycine (stitching residue), C=CCCCC(CCCC=C)(N[*:1])C(=O)[*:2]; B5 = 2-amino-2-(pent-4-en-1-yl)hept-6-enoic acid, C=CCCCC(CCCC=C)(N[*:1])C(=O)[*:2]; Phe(F5) = N[C@@H](Cc1c(F)c(F)c(F)c(F)c1F)C(=O)O; Phe(3,4-F2) = N[C@@H](Cc1ccc(F)c(F)c1)C(=O)O; Phe(3-F) = N[C@@H](Cc1cccc(F)c1)C(=O)O; Phe(3-Me) = Cc1cccc(C[C@H](N)C(=O)O)c1; Phe(4-F) = N[C@@H](Cc1ccc(F)cc1)C(=O)O; 2Nal = N[C@@H](Cc1ccc2ccccc2c1)C(=O)O; αAllylPro = C=CC[C@@]1(C(=O)O)CCCN1; hPhe = N[C@@H](CCc1ccccc1)C(=O)O; 3Pal = N[C@@H](Cc1cccnc1)C(=O)O; S8 = C=CCCCCCC[C@](C)(N)C(=O)O; Nle = CCCC[C@H](N)C(=O)O
# T1: full-length beta-Catenin (Uniprot ID P35222) (Homo sapiens (Human), UniProt P35222 1-781)
# T1 construct: Used full-length in the FP and AlphaScreen assays; also called B-Catenin; bCat
# T1 sequence: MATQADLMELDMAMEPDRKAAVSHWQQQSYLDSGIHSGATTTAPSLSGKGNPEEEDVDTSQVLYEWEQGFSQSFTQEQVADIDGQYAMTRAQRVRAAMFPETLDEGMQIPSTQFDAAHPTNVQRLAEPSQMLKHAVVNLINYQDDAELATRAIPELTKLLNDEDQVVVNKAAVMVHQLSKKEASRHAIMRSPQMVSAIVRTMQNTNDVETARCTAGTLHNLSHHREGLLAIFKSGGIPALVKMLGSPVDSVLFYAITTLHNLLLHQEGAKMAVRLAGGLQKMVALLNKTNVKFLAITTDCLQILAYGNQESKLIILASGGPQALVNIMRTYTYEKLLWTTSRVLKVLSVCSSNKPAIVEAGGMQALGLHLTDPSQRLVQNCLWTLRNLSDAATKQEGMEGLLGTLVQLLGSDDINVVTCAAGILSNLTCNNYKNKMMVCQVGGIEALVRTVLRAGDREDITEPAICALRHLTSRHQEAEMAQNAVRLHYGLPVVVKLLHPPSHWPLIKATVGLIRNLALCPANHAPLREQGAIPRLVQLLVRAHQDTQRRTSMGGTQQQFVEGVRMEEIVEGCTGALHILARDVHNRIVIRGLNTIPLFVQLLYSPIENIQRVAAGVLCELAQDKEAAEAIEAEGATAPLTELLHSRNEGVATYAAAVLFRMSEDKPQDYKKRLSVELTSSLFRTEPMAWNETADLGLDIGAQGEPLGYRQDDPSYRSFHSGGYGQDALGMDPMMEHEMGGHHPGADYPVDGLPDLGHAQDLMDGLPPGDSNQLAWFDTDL
# T2: full-length beta-Catenin (Uniprot ID P35222) (Homo sapiens (Human), UniProt P35222 1-781)
# T2 construct: The assay protocols call it full-length; also called B-Catenin; bCat
# T2 sequence: T1 sequence
# B1: I-195 (peptide)
# peptide: Ac-[αAllylPro]DA[B5(4)]D[hPhe]AAFV[S8]FWQ-NH2
# modifications: staple 1-4, 4-11
# notes: Stapled peptide composition
# B2: I-205 (peptide)
# peptide: Ac-[αAllylPro]DA[B5(3)][Nle]EAAFV[S8]FWQ-NH2
# modifications: staple 1-4, 4-11
# notes: Stapled peptide composition
# B3: I-185 (peptide)
# peptide: Ac-[αAllylPro]DA[B5(18)]DEAA[Phe(3,4-F2)]A[S8]F[2Nal]A-NH2
# modifications: staple 1-4, 4-11
# notes: Stapled peptide composition
# B4: I-183 (peptide)
# peptide: Ac-[αAllylPro]DA[B5(4)]DEAAFV[S8][Phe(F5)]WQ-NH2
# modifications: staple 1-4, 4-11
# notes: Stapled peptide composition
# B5: I-213 (peptide)
# peptide: Ac-[αAllylPro]DA[B5(4)][3Pal]EAAFV[S8]FWQ-NH2
# modifications: staple 1-4, 4-11
# notes: Stapled peptide composition
# B6: I-196 (peptide)
# peptide: Ac-[αAllylPro]DA[B5(4)][hPhe]EAAFV[S8]FWQ-NH2
# modifications: staple 1-4, 4-11
# notes: Stapled peptide composition; this is the earlier-eluting isomer composition
# B7: I-203 (peptide)
# peptide: Ac-[αAllylPro][Phe(3-Me)]A[B5(3)]DEAAFV[S8]FWQ-NH2
# modifications: staple 1-4, 4-11
# notes: Stapled peptide composition
# B8: I-197 (peptide)
# peptide: Ac-[αAllylPro]DA[B5(4)][hPhe]EAAFV[S8]FWQ-NH2
# modifications: staple 1-4, 4-11
# notes: Stapled peptide composition; this is the later-eluting isomer composition
# B9: I-201 (peptide)
# peptide: Ac-[αAllylPro]FA[B5(3)]DEAAFV[S8]FWQ-NH2
# modifications: staple 1-4, 4-11
# notes: Stapled peptide composition
# B10: I-202 (peptide)
# peptide: Ac-[αAllylPro]YA[B5(3)]DEAAFV[S8]FWQ-NH2
# modifications: staple 1-4, 4-11
# notes: Stapled peptide composition
# B11: I-204 (peptide)
# peptide: Ac-[αAllylPro][Phe(3-F)]A[B5(3)]DEAAFV[S8]FWQ-NH2
# modifications: staple 1-4, 4-11
# notes: Stapled peptide composition
# B12: I-206 (peptide)
# peptide: Ac-[αAllylPro]DA[B5(4)]HEAAFV[S8]FWQ-NH2
# modifications: staple 1-4, 4-11
# notes: Stapled peptide composition
# B13: I-257 (peptide)
# peptide: Ac-[αAllylPro]DA[B5(4)]D[Phe(3-F)]AAFV[S8]FWQ-NH2
# modifications: staple 1-4, 4-11
# notes: Stapled (stitched) peptide; also called Ac-PL3-Asp-Ala-B5-Asp-3FF-Ala-Ala-Phe-Val-S8-Phe-Trp-Gln-NH2
# B14: I-280 (peptide)
# peptide: XEAXDDAAFVXFWQ
# modifications: not fully specified; N-terminal Ac; PL3 at 1; B5 at 4; S8 at 11; C-terminal NH2; staples PL3(1)-B5(4) and B5(4)-S8(11) by olefin metathesis
# notes: Stapled (stitched) peptide; also called Ac-PL3-Glu-Ala-B5-Asp-Asp-Ala-Ala-Phe-Val-S8-Phe-Trp-Gln-NH2
# B15: I-284 (peptide)
# peptide: Ac-[αAllylPro]DA[B5(4)]DDAAFV[S8]NWQ-NH2
# modifications: staple 1-4, 4-11
# notes: Stapled (stitched) peptide; also called Ac-PL3-Asp-Ala-B5-Asp-Asp-Ala-Ala-Phe-Val-S8-Asn-Trp-Gln-NH2
# B16: I-259 (peptide)
# peptide: Ac-[αAllylPro]DA[B5]D[Phe(3,4-F2)]AAFV[S8]FWQ-NH2
# modifications: staple 1-4, 4-11
# notes: Stapled (stitched) peptide; also called Ac-PL3-Asp-Ala-B5-Asp-34FF-Ala-Ala-Phe-Val-S8-Phe-Trp-Gln-NH2
# B17: I-258 (peptide)
# peptide: Ac-[αAllylPro]DA[B5]D[Phe(4-F)]AAFV[S8]FWQ-NH2
# modifications: staple 1-4, 4-11
# notes: Stapled (stitched) peptide; also called Ac-PL3-Asp-Ala-B5-Asp-4FF-Ala-Ala-Phe-Val-S8-Phe-Trp-Gln-NH2
# Target: T1, full-length beta-Catenin (Uniprot ID …)
# Experiment: AlphaScreen (nickel chelate) competition; full-length beta-catenin + biotin-TCF4(10-53) probe as competitor; peptide titrated
# Experimental: (§1) Equal volume of the titrated peptide was added to the plate and incubated for 15 minutes at 20° C. Then 4 uL of donor and 4 uL acceptor beads at 10 ug/mL were added to the plate, for a 16 uL reaction pool and protected from light for 60 minutes at 20° C. prior to read. Reads were performed on a CLARIOstar plate reader (BMG Labtech) in duplicate, and data were fitted to a 1:1 binding model with hill slope using an in-house script. All provided concentrations are final concentrations.
row,EC50,Binder
1,2.18 µM,B1
2,≥ 10 µM,B2
3,2.66 µM,B3
4,3.77 µM,B4
5,8.05 µM,B5
6,5.51 µM,B6
7,5.99 µM,B7
8,6.15 µM,B8
9,6.16 µM,B9
10,7.88 µM,B10
11,7.28 µM,B11
12,2.14 µM,B12

# Target: T2, full-length beta-Catenin (Uniprot ID …)
# Experiment: AlphaScreen competition; full-length beta-catenin with biotin-labelled TCF4 10-53 peptide as competitor
# Experimental: as §1
row,EC50,Binder
1,3.81 µM,B13
2,3.05 µM,B14
3,4.35 µM,B15
4,4.18 µM,B16
5,2.93 µM,B17

# — patent US20240116985A1 (published 2024)
